This is an account of results in patent publication US9163063B2, “Peptides and nanoparticles for therapeutic and diagnostic applications” (Trustees of Dartmouth College, priority 2009, dated 2015).

Ends that are not written are not given here. * marks the point of attachment. Biotin = O=C1N[C@H]2[C@H](CS[C@H]2CCCCC(=O)*)N1

Experiment [1] relates to EGFR. Briefly: EGFR expression after integrin-tail peptide in AsPC1 cells. Type of experiment: cell-based, human. To be noted: AsPC1 pancreatic adenocarcinoma cells. From the text:
In addition, with its PDZ domain, GIPC is associated with a vast list of transmembrane receptors, including integrin α6 and α 5 that are expressed in several pancreatic cancer cell lines. […] EGFR is a receptor tyrosine kinase highly expressed in pancreatic cancer cells and is a prognostic factor for overall survival. […] A peptide designed to disrupt the interaction between the PDZ domain and the cytoplasmic tail of integrin α 5 and α 6 (KERLTSDA, SEQ ID NO. 8) was utilized.

The target of experiment [2] is T1, PDZ domain of GIPC/synectin (Homo sapiens, UniProt O14908).
T1 construct: dsDNA encoding the PDZ domain of GIPC/synectin was double-digested with EcoRI and HindIII; made in house; host or cells: T7 phage grown in E. coli BLT5403
T1 sequence (O14908 133-213 limits assumed): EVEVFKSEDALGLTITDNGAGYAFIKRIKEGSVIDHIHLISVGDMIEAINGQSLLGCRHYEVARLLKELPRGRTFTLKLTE
Briefly: Phage ELISA / phage binding assay with N-terminal biotinylated peptides. To be noted: GIPC-PDZ T7 phage. On the procedure: dsDNA encoding the PDZ domain of GIPC/synectin was double-digested with EcoRI and HindIII, and the DNA (0.8 μL of a 45 nM (7.7 ng/μL) solution) was used in the ligation reaction with the T7 Select 10-3 vector arms (Novagen, 0.5 μL), along with 10× ligase buffer (0.25 μL); ATP (10 mM, 0.25 μL, final concentration 1 mM); DTT (100 mM, 0.25 μL); and T4 DNA ligase (0.5 μL, 1 unit/μL). The sample was incubated at 16° C. for 16 h. The T7 phage packaging reaction was performed by adding packaging extract (Novagen, 12.5 μL, or half the manufacturer's recommended amount) to the ligation reaction sample (2.5 μL) and allowing it to incubate for 2 h at room temperature. The reaction was stopped by the addition of a sterile LB medium (135 μL). A plaque assay was performed to determine the number of recombinant phage generated. E. coli BTL5403 was grown at 37° C. with shaking in LB/Amp50 medium (10 mL) until OD˜1.0 was reached. Top agarose (10 mL) was melted and equilibrated to this temperature. A series of dilutions was prepared prior to plating the phage. The first dilution was generated by adding packaged phage (10 μL) to LB/Amp50 (990 μL) for a total of 100-fold dilution (10^2). […] Plaques generated were counted to determine the titer and the number of recombinants generated. […]

For the substance KERLTSDA [K-E-R-L-T-S-D-A], in experiment [1], the EGFR expression entry is “down regulation of EGFR”. With KKETAV, in experiment [2], the “binding to the PDZ domain of GIPC/synectin” value was “not recognized”. On the same count and under the same terms, in the case of KKETEV (Biotin-KKETEV) it was “not recognized”.
